The text below walks through data of the supplement of paper PMC10567573.

The labels stand for the following.
B1: TRIM63 (parent)
chain: ANPYWTSRGSSVSMSGGRFRCPTC
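Note: lentivirally expressed fusions sorted by FACS into six bins by GFP to DsRed ratio, PSI derived from sequencing read proportions per bin multiplied by bin number.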

In this data set the parent is B1. In words: protein stability index of a GFP-peptide fusion (GPS, HEK-293T) (PSI 1-6); higher = more stable. The note with it: c terminus: a fixed tail appended.
In the case of ANPYWTSRQSSVSMSGGRFRCPTC, the protein stability index turned out to be 1.3.
With ANPYWTSRPSSVSMSGGRFRCPTC the figure was 1.76; with ANPYWTSRMSSVSMSGGRFRCPTC, 1.39; with ANPYWTSRKSSVSMSGGRFRCPTC, 1.98.
With ANPYWTSRISSVSMSGGRFRCPTC the figure was 1.39.
In the case of ANPYWTSRDSSVSMSGGRFRCPTC it was 1.94; in that of ANPYWTSRHSSVSMSGGRFRCPTC, 1.31.
Take ANPYWTSRLSSVSMSGGRFRCPTC: the protein stability index was 1.56.
Consider ANPYWTSRESSVSMSGGRFRCPTC, for which the protein stability index stood at 1.6.
Regarding ANPYWTSRYSSVSMSGGRFRCPTC, the protein stability index worked out at 2.32.
With ANPYWTSRSSSVSMSGGRFRCPTC the figure was 1.9; with ANPYWTSRNSSVSMSGGRFRCPTC, 2.13; with ANPYWTSRVSSVSMSGGRFRCPTC, 1.91.
As to ANPYWTSRFSSVSMSGGRFRCPTC, the protein stability index was determined as 1.92.
As for ANPYWTSRASSVSMSGGRFRCPTC, the protein stability index was determined as 1.7.
Turning to ANPYWTSRRSSVSMSGGRFRCPTC, the protein stability index is 2.15.
In the case of ANPYWTSRWSSVSMSGGRFRCPTC, the protein stability index came to 1.43.
In the case of ANPYWTSRGSEVSMSGGRFRCPTC it was 1.76; in that of ANPYWTSRGSAVSMSGGRFRCPTC, 2.3.
Regarding ANPYWTSRGSLVSMSGGRFRCPTC, the protein stability index was 1.1.
Take ANPYWTSRGSMVSMSGGRFRCPTC: the protein stability index was determined as 1.63.
As for ANPYWTSRGSIVSMSGGRFRCPTC, the protein stability index was determined as 3.32.
With ANPYWTSRGSHVSMSGGRFRCPTC the figure was 2.68; with ANPYWTSRGSCVSMSGGRFRCPTC, 1.88; with ANPYWTSRGSFVSMSGGRFRCPTC, 2.15.
For ANPYWTSRGSKVSMSGGRFRCPTC, the protein stability index stood at 1.29.
In the case of ANPYWTSRGSDVSMSGGRFRCPTC it was 2.08; in that of ANPYWASRGSSVSMSGGRFRCPTC, 2.1; in that of ANPYWNSRGSSVSMSGGRFRCPTC, 1.74.
ANPYWQSRGSSVSMSGGRFRCPTC: the protein stability index is 3.06.
Take ANPYWRSRGSSVSMSGGRFRCPTC: the protein stability index amounted to 2.2.
On to ANPYWHSRGSSVSMSGGRFRCPTC, for which the protein stability index amounted to 2.12.
Consider ANPYWPSRGSSVSMSGGRFRCPTC, for which the protein stability index amounted to 1.66.
Turning to ANPYWMSRGSSVSMSGGRFRCPTC, the protein stability index amounted to 2.24.
With ANPYWESRGSSVSMSGGRFRCPTC the figure was 1.51; with ANPYWWSRGSSVSMSGGRFRCPTC, 1.48; with ANPYWISRGSSVSMSGGRFRCPTC, 1.84.
Turning to ANPYWGSRGSSVSMSGGRFRCPTC, the protein stability index was determined as 2.44.
Consider ANPYWYSRGSSVSMSGGRFRCPTC, for which the protein stability index is 1.69.
Take ANPYWDSRGSSVSMSGGRFRCPTC: the protein stability index worked out at 1.83.
In the case of ANPYWKSRGSSVSMSGGRFRCPTC, the protein stability index is 1.56.
ANPYWCSRGSSVSMSGGRFRCPTC: the protein stability index is 1.58.
For ANPYWSSRGSSVSMSGGRFRCPTC, the protein stability index is 1.45.
Regarding ANPYWTSFGSSVSMSGGRFRCPTC, the protein stability index worked out at 1.27.
As to ANPYWTSCGSSVSMSGGRFRCPTC, the protein stability index turned out to be 1.23.
With ANPYWTSHGSSVSMSGGRFRCPTC the figure was 1.41.
In the case of ANPYWTSGGSSVSMSGGRFRCPTC, the protein stability index came out at 1.55.
As for ANPYWTSNGSSVSMSGGRFRCPTC, the protein stability index was found to be 1.92.
Consider ANPYWTSDGSSVSMSGGRFRCPTC, for which the protein stability index was 1.91.
For ANPYWTSEGSSVSMSGGRFRCPTC, the protein stability index is 3.19.
As to ANPYWTSQGSSVSMSGGRFRCPTC, the protein stability index worked out at 1.99.
With ANPYWTSTGSSVSMSGGRFRCPTC, the protein stability index was found to be 1.8.
Consider ANPYWTSLGSSVSMSGGRFRCPTC, for which the protein stability index is 2.33.
As to ANPYWTSMGSSVSMSGGRFRCPTC, the protein stability index worked out at 1.39.
For the variant ANPYWTSVGSSVSMSGGRFRCPTC, the protein stability index is 1.95.
In the case of ANPYWTSIGSSVSMSGGRFRCPTC, the protein stability index is 1.4.
ANPYWTSAGSSVSMSGGRFRCPTC: the protein stability index came to 1.85.
In the case of ANPYWTSKGSSVSMSGGRFRCPTC, the protein stability index was determined as 1.95.
Consider ANPYWTSYGSSVSMSGGRFRCPTC, for which the protein stability index was 1.71.
With ANPYWTSPGSSVSMSGGRFRCPTC, the protein stability index was 1.55.
Take ANPYWTSSGSSVSMSGGRFRCPTC: the protein stability index is 1.65.
In the case of ANPYSTSRGSSVSMSGGRFRCPTC it was 1.9.
In the case of ANPYVTSRGSSVSMSGGRFRCPTC, the protein stability index was 2.59.
As to ANPYYTSRGSSVSMSGGRFRCPTC, the protein stability index came to 1.7.
Take ANPYTTSRGSSVSMSGGRFRCPTC: the protein stability index came to 1.76.
Turning to ANPYWTSRGLSVSMSGGRFRCPTC, the protein stability index came to 1.46.
Take ANPYWTSRGMSVSMSGGRFRCPTC: the protein stability index was determined as 1.84.
In the case of ANPYWTSRGVSVSMSGGRFRCPTC it was 1.72; in that of ANPYWTSRGFSVSMSGGRFRCPTC, 2.56.
As for ANPYWTSRGESVSMSGGRFRCPTC, the protein stability index is 1.76.
As to ANPYWTSRGYSVSMSGGRFRCPTC, the protein stability index came to 1.57.
In the case of ANPYWTSRGCSVSMSGGRFRCPTC it was 2.18; in that of ANPYWTSRGKSVSMSGGRFRCPTC, 1.65.
Take ANPYWTSRGTSVSMSGGRFRCPTC: the protein stability index came to 2.24.
In the case of ANPYWTSRGWSVSMSGGRFRCPTC it was 3.35; in that of ANPYWTSRGHSVSMSGGRFRCPTC, 2.44; in that of ANPYWTSRGQSVSMSGGRFRCPTC, 2.83.
As to ANPYWTSRGPSVSMSGGRFRCPTC, the protein stability index was determined as 1.75.
Turning to ANPYWTSRGASVSMSGGRFRCPTC, the protein stability index was 1.68.
With ANPYWTQRGSSVSMSGGRFRCPTC the figure was 2.29.
ANPYWTIRGSSVSMSGGRFRCPTC: the protein stability index stood at 3.16.
On to ANPYWTFRGSSVSMSGGRFRCPTC, for which the protein stability index was 2.07.
Regarding ANPYWTERGSSVSMSGGRFRCPTC, the protein stability index is 1.28.
As to ANPYWTPRGSSVSMSGGRFRCPTC, the protein stability index came out at 1.27.
With ANPYWTHRGSSVSMSGGRFRCPTC, the protein stability index came out at 1.45.
In the case of ANPYWTLRGSSVSMSGGRFRCPTC, the protein stability index is 1.6.
For the variant ANPYWTNRGSSVSMSGGRFRCPTC, the protein stability index is 1.37.
In the case of ANPYWTWRGSSVSMSGGRFRCPTC, the protein stability index is 2.62.
With ANPYWTYRGSSVSMSGGRFRCPTC the figure was 1.54.
For ANPYWTDRGSSVSMSGGRFRCPTC, the protein stability index stood at 2.38.
For ANPYWTVRGSSVSMSGGRFRCPTC, the protein stability index stood at 1.93.
Take ANPYWTTRGSSVSMSGGRFRCPTC: the protein stability index was determined as 1.58.
Take ANPYWTARGSSVSMSGGRFRCPTC: the protein stability index worked out at 2.41.
With ANPYWTMRGSSVSMSGGRFRCPTC the figure was 2.53.
